This note sets out measurements from article PMC5906670, “Structural basis of epilepsy-related ligand–receptor complex LGI1–ADAM22” (Nature Communications, 2018).

B1: LGI1 (wild type, pull-down with ADAM22/23 ECD-FLAG) [human] / ADAM23 ECD-FLAG [human] (parent complex)
chain 1: KKPAKPKCPAVCTCTKDNALCENARSIPRTVPPDVISLSFVRSGFTEISEGSFLFTPSLQLLLFTSNSFDVISDDAFIGLPHLEYLFIENNNIKSISRHTFRGLKSLIHLSLANNNLQTLPKDIFKGLDSLTNVDLRGNSFNCDCKLKWLVEWLGHTNATVEDIYCEGPPEYKKRKINSLSSKDFDCIITEFAKSQDLPYQSLSIDTFSYLNDEYVVIAQPFTGKCIFLEWDHVEKTFRNYDNITGTSTVVCKPIVIETQLYVIVAQLFGGSHIYKRDSFANKFIKIQDIEILKIRKPNDIETFKIENNWYFVVADSSKAGFTTIYKWNGNGFYSHQSLHAWYRDTDVEYLEIVRTPQTLRTPHLILSSSSQRPVIYQWNKATQLFTNQTDIPNMEDVYAVKHFSVKGDVYICLTRFIGDSKVMKWGGSSFQDIQRMPSRGSMVFQPLQINNYQYAILGSDYSFTQVYNWDAEKAKFVKFQELNVQAPRSFTHVSINKRNFLFASSFKGNTQIYKHVIVDLSA
chain 2: AVNPSRGIFEEMKYLELMIVNDHKTYKKHRSSHAHTNNFAKSVVNLVDSIYKEQLNTRVVLVAVETWTEKDQIDITTNPVQMLHEFSKYRQRIKQHADAVHLISRVTFHYKRSSLSYFGGVCSRTRGVGVNEYGLPMAVAQVLSQSLAQNLGIQWEPSSRKPKCDCTESWGGCIMEETGVSHSRKFSKCSILEYRDFLQRGGGACLFNRPTKLFEPTECGNGYVEAGEECDCGFHVECYGLCCKKCSLSNGAHCSDGPCCNNTSCLFQPRGYECRDAVNECDITEYCTGDSGQCPPNLHKQDGYACNQNQGRCYNGECKTRDNQCQYIWGTKAAGSDKFCYEKLNTEGTEKGNCGKDGDRWIQCSKHDVFCGFLLCTNLTRAPRIGQLQGEIIPTSFYHQGRVIDCSGAHVVLDDDTDVGYVEDGTPCGPSMMCLDRKCLQIQALNMSSCPLDSKGKVCSGHGVCSNEATCICDFTWAGTDCSIRDPVRNLHPPKDEGPKGPSA
B2: LGI1 (wild type, pull-down with ADAM22/23 ECD-FLAG) [human] / ADAM22 ECD-FLAG [human] (parent complex)
chain 1: B1 chain 1
chain 2: SKRQLRRYPRNVEEETKYIELMIVNDHLMFKKHRLSVVHTNTYAKSVVNMADLIYKDQLKTRIVLVAMETWATDNKFAISENPLITLREFMKYRRDFIKEKSDAVHLFSGSQFESSRSGAAYIGGICSLLKGGGVNEFGKTDLMAVTLAQSLAHNIGIISDKRKLASGECKCEDTWSGCIMGDTGYYLPKKFTQCNIEEYHDFLNSGGGACLFNKPSKLLDPPECGNGFIETGEECDCGTPAECVLEGAECCKKCTLTQDSQCSDGLCCKKCKFQPMGTVCREAVNDCDIRETCSGNSSQCAPNIHKMDGYSCDGVQGICFGGRCKTRDRQCKYIWGQKVTASDKYCYEKLNIEGTEKGNCGKDKDTWIQCNKRDVLCGYLLCTNIGNIPRLGELDGEITSTLVVQQGRTLNCSGGHVKLEEDVDLGYVEDGTPCGPQMMCLEHRCLPVASFNFSTCLSSKEGTICSGNGVCSNELKCVCNRHWIGSDCNTYFPHNDDAKTGITLSG

One assay covers variants of B1. Put plainly: pull-down; anti-FLAG antibody agarose; proteins secreted from HEK293T cells; n = 4 independent experiments; read off a plot.
On to chain 1 L268A, for which the percent of parent is ~14 % of WT.

On to chain 1 V250A, for which the percent of parent was ~20 % of WT.

With chain 1 R344A, the percent of parent is ~6 % of WT.

As to chain 1 K319A, the percent of parent was ~7 % of WT.

For the variant chain 1 M443A, the percent of parent was ~10 % of WT.

Turning to chain 1 F222A, the percent of parent was ~16 % of WT.

Consider chain 1 Y399A, for which the percent of parent was ~4 % of WT.

For chain 1 R296A, chain 1 K297A, the percent of parent is ~9 % of WT.

For the variant chain 1 K297A, the percent of parent was ~46 % of WT.

In a further assay the parent is B2. The description is as above.
In the case of chain 1 F222A, the percent of parent was ~37 % of WT.

For the variant chain 1 M443A, the percent of parent is ~9 % of WT.

With chain 1 R344A, the percent of parent is ~33 % of WT.

chain 1 Y399A: the percent of parent was ~4 % of WT.

Regarding chain 1 R296A, chain 1 K297A, the percent of parent was ~15 % of WT.

As to chain 1 R296A, the percent of parent is ~85 % of WT.

Turning to chain 1 L268A, the percent of parent is ~8 % of WT.

For the variant chain 1 K297A, the percent of parent was ~64 % of WT.

Consider chain 1 V250A, for which the percent of parent is ~35 % of WT.
